Substrate in this data set: O=c1ccn([C@@H]2O[C@H](COP(=O)(O)OP(=O)(O)O[C@H]3O[C@H](CO)[C@H](O)[C@H](O)[C@H]3O)[C@@H](O)[C@H]2O)c(=O)[nH]1
Nature of the data set: purified protein. It counts as biochemical, Oryza sativa. To be noted: 30°C, 100 mM glycine buffer pH 8.7, 1 mM NAD+, UDP-Gal varied 0.4-3.2 mM.

B1: PHD1 (PHOTO… …1) (Oryza sativa Japonica Group) (protein)
chain: DDTGVKMAGSDIVGKNDLLIVGPGVLGRLVAEKWQEEHPGCKVFGQTASTDHHNELSNIGIIPSLKGSTFPQKVPYVIFCAPPSRSDDYPGDVRVAASNWTGEGSFVFTSSTALYDCSDNELCNEDCPSVPIGRSPRTDVLLKAENVVLEAGGCVLRLAGLYKIDRGAHFFWLRKGTLDTRPDHIINQIHYEDAASLAIAIMKKGHRGRIFLGCDNKPLSRQEIMDSVNRSGKFDTKFQGFTGTDGPLGKKMENSRTRSEIGWEPKYPSFTEFLGLDS
notes: mature protein without putative N-terminal 62-aa chloroplast transit peptide (full length 340 aa); expressed in E. coli; pGEX-4T-1 (GST) in BL21(DE3), glutathione Sepharose purified (described for antibody production)
The term Km denotes the concentration of substrate that gives half-maximal velocity. As to B1, the Km is 840 µM.

The record behind these values is PMC3145628, “A Rice Plastidial Nucleotide Sugar Epimerase Is Involved in Galactolipid Biosynthesis and Improves Photosynthetic Efficiency” (PLoS Genetics, 2011).
